Read-outs that look alike come from different tables or passages of the source. Blank lines part the entries; values can stand above or below the binder they belong to.
Key:
[1] = molecular target: T1, N-Term Biotin Nav1.7 (3-1) peptide, mouse (mouse, not fully specified; N-terminal biotin attached via a G4S linker); test: ELISA on coated peptide
T1 construct: Synthetic peptide; also called Mouse Nav1.7 3-1 N-term biotin
T1 peptide: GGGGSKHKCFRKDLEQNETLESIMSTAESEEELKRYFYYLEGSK
Summary of the method: (§1)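 Peptides coated at 4 μg/mL in PBS, or biotinylated peptides captured at 0.4 μg/mL on avidin (2 μg/mL). Antibodies at 0.1 and 1.0 μg/mL, 1 h at room temperature, detected with HRP anti-mouse or anti-human IgG and TMB at OD450. Scores at 1 μg/ml: <0.2 −; 0.2–1 +; 1–2 ++; 2–4 +++.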

[2] = molecular target: T2, Native Nav1.7 (3-1) peptide, rat (rat); test: ELISA on coated peptide
T2 construct: Synthetic peptide; also called Rat Nav1.7 3-1 native
T2 peptide: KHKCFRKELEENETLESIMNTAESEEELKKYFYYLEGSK
Summary of the method: as §1

[3] = molecular target: T3, mouse Nav 1.7 in DRG neurons of wild type (Scn9a +/+) mice (mouse, UniProt Q62205 1-1984); test: immunocytochemistry on cultured DRG neurons, antibody 66 nM
T3 construct: whole, on cells
Experimental: Briefly, lumbar DRGs were harvested from Scn9a^{hu/+}, Scn9a^{hu3-1/hu3-1} and Scn9a^{+/+} mice. After dissociation, cells were plated at a density of 5.5×10⁴ cells/well on 96 well plates treated with poly-DL-ornithine (0.1 mg/ml) and laminin (5 μg/ml) followed by incubation at 37° C. in 96.5% air and 3.5% CO₂. Neurons were maintained in culture in DMEM supplemented with 50 ng/ml nerve growth factor, 100 U/ml penicillin/streptomycin, MEM vitamins, and 10% heat-inactivated fetal calf serum.
After 3 to 8 days in culture, neurons were fixed in 4% PFA and 4% sucrose in PBS for 30 minutes, and permeabilized in 10% NGS and 0.1% Triton X-100. Neurons were then incubated overnight at 4° C. with anti-Naᵥ 1.7 antibodies at 66 nM (1 μg). The next day, neurons were incubated in 1:400 dilution of anti-human Alexa Fluor® 594 (Invitrogen) conjugated secondary antibody for 1 h at RT. Images were taken using a fluorescent microscope.

[4] = molecular target: T4, C-Term Biotin Nav1.7 (3-3) peptide, mouse (mouse, C-terminal biotin attached via a G4S linker); test: SPR, captured antibody, peptide analyte
T4 construct: Synthetic peptide; also called Mouse Nav1.7 3-3 C-term biotin
T4 peptide: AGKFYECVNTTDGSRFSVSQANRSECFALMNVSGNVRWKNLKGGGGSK
Summary of the method: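 Biacore SPR: antibody captured via Fc on anti-Fc surface, Nav1.7 loop peptides injected as analyte at several concentrations. Double-referenced sensorgrams globally fitted to a 1:1 model; KD = kd/ka, t1/2 = ln2/kd.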

[5] = molecular target: T5, N-Term Biotin-Nav1.7 (3-3) peptide, human (same sequence of EC3-3 for mulatta) (human (same sequence of EC3-3 for …, not fully specified; N-terminal biotin attached via a G4S linker); test: ELISA on coated peptide, antibody 1 ug/ml, OD450 grade; Monkey column
T5 construct: ELISA peptide
T5 peptide: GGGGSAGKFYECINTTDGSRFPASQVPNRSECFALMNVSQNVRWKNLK
Experimental: Anti-Naᵥ 1.7 antibodies were tested for their ability to bind to the Naᵥ 1.7 peptides. The various peptides were coated overnight onto 96-well Nunc Immunosorp plates at a concentration of 4 μg/mL in PBS, followed by blocking for 1 hour in a suitable blocking agent. For biotinylated peptides, avidin was first coated on Nunc Immunosorp plates at 2 μg/mL in PBS overnight, followed by blocking as described, and the plate was then coated with biotinylated peptides at a concentration of 0.4 μg/mL and incubated for 1 hour at room temperature. Purified anti-Naᵥ 1.7 antibodies were diluted to a final concentration of 0.1 μg/mL and 1.0 μg/mL and added to the wells of the coated microtiter plates followed by incubation for 1 hour at room temperature. Bound antibodies were detected with horseradish peroxidase (HRP) conjugated anti-mouse or anti-human IgG (Jackson Immuno Research Lab, West Grove, Pa.) depending on the antibody species and developed by colorimetric response using tetramethylbenzidine (TMB) substrate (BD Biosciences). Absorbance was read at OD₄₅₀ on a plate reader for 0.1 second.
Values in Table 11 represent absolute binding ranges (at OD450) to plate-coated peptides for antibodies added at 1 μg/ml as follows: OD450<0.2: −; 0.2<OD450<1: +; 1<OD450<2: ++; 2<OD450<4: +++; NT: Not Tested.

[6] = molecular target: T6, Native Nav1.7 (3-3) peptide, human (human); test: Biacore (second token of ELISA/Biacore summary)
T6 construct: Synthetic peptide, unbiotinylated; also called Human Nav1.7 3-3 native; Nav1.7 3-3 native peptide
T6 peptide: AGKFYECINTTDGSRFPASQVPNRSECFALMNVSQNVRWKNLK

[7] = molecular target: T6, Native Nav1.7 (3-3) peptide, human; test: Biacore (second token of ELISA/Biacore summary)
[8] = molecular target: T7, C-term Biotin Nav1.7 (3-3) peptide, human (human, C-terminal biotin attached via a G4S linker); test: SPR, captured biotin-peptide, antibody analyte
T7 construct: Synthetic peptide; also called Human Nav1.7 3-3 C-term biotin
T7 peptide: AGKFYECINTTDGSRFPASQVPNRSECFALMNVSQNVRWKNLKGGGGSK

T3 sequence (Q62205 whole entry): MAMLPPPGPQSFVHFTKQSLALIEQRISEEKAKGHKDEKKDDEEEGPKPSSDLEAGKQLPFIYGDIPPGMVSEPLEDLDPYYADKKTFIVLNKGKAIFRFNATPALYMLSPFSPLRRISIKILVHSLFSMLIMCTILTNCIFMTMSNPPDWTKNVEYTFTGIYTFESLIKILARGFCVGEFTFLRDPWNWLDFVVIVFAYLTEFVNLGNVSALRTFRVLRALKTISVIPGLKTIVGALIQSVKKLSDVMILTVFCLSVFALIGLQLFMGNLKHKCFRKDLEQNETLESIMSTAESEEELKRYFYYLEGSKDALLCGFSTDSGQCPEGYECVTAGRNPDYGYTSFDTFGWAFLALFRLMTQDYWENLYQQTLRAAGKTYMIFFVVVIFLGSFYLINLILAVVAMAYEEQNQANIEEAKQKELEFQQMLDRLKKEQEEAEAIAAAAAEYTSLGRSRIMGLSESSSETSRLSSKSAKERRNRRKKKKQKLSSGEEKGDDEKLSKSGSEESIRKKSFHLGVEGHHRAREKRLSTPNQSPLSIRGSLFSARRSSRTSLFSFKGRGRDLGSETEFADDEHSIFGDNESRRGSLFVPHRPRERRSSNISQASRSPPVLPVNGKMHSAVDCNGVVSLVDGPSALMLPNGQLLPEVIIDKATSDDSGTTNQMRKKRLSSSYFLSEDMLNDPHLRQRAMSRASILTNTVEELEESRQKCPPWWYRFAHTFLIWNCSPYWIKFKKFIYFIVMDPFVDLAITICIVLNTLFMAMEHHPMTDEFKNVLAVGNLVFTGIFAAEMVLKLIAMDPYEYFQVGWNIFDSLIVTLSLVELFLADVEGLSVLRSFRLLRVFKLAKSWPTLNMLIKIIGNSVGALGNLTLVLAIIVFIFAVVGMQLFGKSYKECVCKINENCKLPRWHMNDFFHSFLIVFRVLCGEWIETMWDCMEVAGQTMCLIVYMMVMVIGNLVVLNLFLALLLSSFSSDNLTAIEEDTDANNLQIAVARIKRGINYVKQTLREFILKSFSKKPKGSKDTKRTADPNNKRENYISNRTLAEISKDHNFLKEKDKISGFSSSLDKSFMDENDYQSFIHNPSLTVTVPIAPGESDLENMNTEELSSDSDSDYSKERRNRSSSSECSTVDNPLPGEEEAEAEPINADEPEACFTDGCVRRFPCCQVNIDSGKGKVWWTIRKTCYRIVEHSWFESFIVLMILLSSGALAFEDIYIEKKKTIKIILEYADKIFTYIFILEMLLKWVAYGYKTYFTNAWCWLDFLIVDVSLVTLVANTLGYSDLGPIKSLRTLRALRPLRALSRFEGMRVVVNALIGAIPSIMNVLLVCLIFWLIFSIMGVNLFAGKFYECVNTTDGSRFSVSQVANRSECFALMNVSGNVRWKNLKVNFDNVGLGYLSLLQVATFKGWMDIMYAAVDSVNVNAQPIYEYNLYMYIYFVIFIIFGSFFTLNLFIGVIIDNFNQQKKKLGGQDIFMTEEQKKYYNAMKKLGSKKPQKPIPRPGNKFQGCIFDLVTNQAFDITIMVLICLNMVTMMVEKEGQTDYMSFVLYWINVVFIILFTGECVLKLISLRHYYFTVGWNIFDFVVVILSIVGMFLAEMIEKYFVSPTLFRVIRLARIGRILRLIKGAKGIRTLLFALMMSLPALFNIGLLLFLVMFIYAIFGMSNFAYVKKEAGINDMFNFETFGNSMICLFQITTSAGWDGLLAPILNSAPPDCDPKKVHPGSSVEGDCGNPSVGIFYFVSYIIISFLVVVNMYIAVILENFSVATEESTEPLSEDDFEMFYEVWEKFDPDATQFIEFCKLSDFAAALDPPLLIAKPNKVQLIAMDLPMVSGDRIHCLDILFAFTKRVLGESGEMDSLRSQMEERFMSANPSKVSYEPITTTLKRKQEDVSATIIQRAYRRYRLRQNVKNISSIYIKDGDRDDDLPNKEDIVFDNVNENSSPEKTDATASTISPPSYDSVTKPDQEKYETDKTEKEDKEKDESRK

OD450 [1]: < 0.2 od | OD450 [2]: < 0.2 od
B1: H1M879N (antibody, V domains shown)
VH: EVQLVESGGGLVKPGGSLRLSCAASGFTFSSYTIHWVRQAPGKGLEWVSSISSSSSYIYYVDSVKGRFTISRDNAKNSVYLQMNSLRAEDTAVYYCATSSITARGYFDYWGQGTLVTVSS
VL: EIVLTQSPATLSLSPGERVTLSCRASQSVSSYLAWYQQKPGQAPRLLIYDASNRATGIPARFSGSGSGTDFTLTISSLEPEDFAVYYCQQRNIWPPTFGQGTKVEIK
notes: Hybridoma-derived

binding result [3]: binds
B2: H1H1006B (antibody, V domains shown)
VH: EVQLVESGPGLVKSSETLSLKCTVSGGSISSSGYYWGWIRQPPGKGLEWIGSIHRSGSTFYNPSLKSRVTISVDTSKSQFSLRLTSVTAADTSVYFCGRHGRDYYYGMDVWGQGTTVTVSS
VL: DIQMTQSPSSVSASVGDRVTITCRSSQDINNWLVWYQQKPGKAPKVLIYGASRLQSGVPSRFSGSGSGTDFTLTISSLQPEDFATYYCQQANSFPLTFGGGTKVEIKR
notes: Fully human antibody; also called H4H1006B-1

binding result [4]: no binding | OD450 [5]: 1 to 2 od | Kd [6]: > 200 nM | Kd [7]: > 200 nM | Kd [8]: 117 nM | t1/2 [8]: 1.3 min
B3: H1M852N (antibody, V domains shown)
VH: QVQLVESGGGVVQPGRSLTLSCAASGFMFNRFGMHWVRQAPGKGLDWVAVIWYDGSNKYYADSVKGRFTISRDNSKNTLYLQVNSLRAEDTAVYYCAREGTPHYYDSSGLDYWGQGTLVTVSS
VL: AIQMTQSPSSLSAYVGDRVTITCRASQDIRNDLGWYQQKPGKAPNLLIYDISSLQSGVPSRFSGSGSGTDFTLTISSLQPEDFATYYCLQDYNYPLTFGGGTKVEIK
notes: constant region may differ; also called H4H852N

Reference: US20160024208A1 (Regeneron, published 2016)
